Assay results: PMC4907695

Tests used:
[1] = target: SecA^A795C-FL (SecA with a fluorescein label at position 795 on the tip of the two-helix finger) (E. coli) (UniProt P10408); assay: other fluorescence titration; as a1 (10 nM SecA*, TSG buffer, 0.02% DDM, 2 mM MgCl2, 1 mM AMPPNP) with SecYLGEG pre-incubated with 100 mM DTT
[2] = target: SecA^A795C-FL (SecA with a fluorescein label at position 795 on the tip of the two-helix finger) (E. coli) (UniProt P10408); assay: other fluorescence titration; 10 nM SecA* fixed, SecYEG varied; quenching of the fluorescein on SecA*; TSG buffer (20 mM Tris pH 7.5, 130 mM NaCl, 10% glycerol) with 0.02% DDM, 2 mM MgCl2, 1 mM AMPPNP; no DTT; fitted to a tight binding equation

Kd [1]	Kd [2]	Substance
0.019 µM	–	SecYLGEG pre-incubated with 100 mM DTT (disulphide between S87C and F286C of SecY reduced) (from UniProt P0AGA2 1-443; P0AG96 1-127; P0AG99 1-110) (complex)
–	0.041 µM	SecYLGEG, oxidised (SecYEG with the lateral gate closed by a disulphide bond between S87C and F286C of SecY) (from UniProt P0AGA2 1-443; P0AG96 1-127; P0AG99 1-110) (complex)
